From patent publication JPH11332563A (dated 1999)

Experiments:
[1] = biological target: T1, ヒト可溶性CD4 (human soluble CD4 prepared in Example 2, C-terminal FLAG-tag, from COS7 cells) (human, UniProt P01730 26-396); assay: SPR (BIAcore 2000), soluble CD4 amine-coupled on CM5, antibody (50 ug/ml) as analyte
T1 construct: extracellular domain; no cleavage site is stated; also called ヒトCD4; CD4分子

[2] = biological target: T1, ヒト可溶性CD4 (human soluble CD4 prepared in …); assay: SPR (BIAcore 2000), antibody amine-coupled on CM5, soluble CD4 as analyte

| Binder | Kd [1] | koff [1] | kon [1] | Kd [2] | fold higher binding affinity than 13B8.2抗体 (comparison of KD) [2] | koff [2] | kon [2] |
| --- | --- | --- | --- | --- | --- | --- | --- |
| 4H5 抗体 (monoclonal antibody produced by Mouse-Mouse hybridoma 4H5, FERM P-16807) (antibody, IgG1, V domains shown, also called 4H5 antibody; 抗ヒトCD4抗体 4H5) VH: QVQLQQSGPELVKPGASVKMSCKASGYTFTDYVINWLNQRTGQGLEWIGEIYPGSGSAYYNEMFKGKATLTADKSSNTAYMQLSSLTSEDSAVYFCARRGTGTGFAYWGRGTLVTVSA VL: not shown | 0.808 nM | 5.33e-06 s⁻¹ | 6600 M⁻¹ s⁻¹ | 1.71 nM | ~4.4 fold | 0.000231 s⁻¹ | 135000 M⁻¹ s⁻¹ |
| キメラ 4H5抗体 (ヒトマウスキメラ抗CD4抗体, expressed from pG14H5 in COS7 cells) (antibody, V domains shown) VH: QVQLQQSGPELVKPGASVKMSCKASGYTFTDYVINWLNQRTGQGLEWIGEIYPGSGSAYYNEMFKGKATLTADKSSNTAYMQLSSLTSEDSAVYFCARRGTGTGFAYWGRGTLVTVSA VL: not shown | 1.24 nM | 2.92e-05 s⁻¹ | 23600 M⁻¹ s⁻¹ | – | – | – | – |
